In this experiment the target is T1, rat GLP-1 receptor (Rattus norvegicus, UniProt P32301).
T1 construct: expressed in transfected cells; host or cells: COS cells
T1 sequence (P32301 22-463): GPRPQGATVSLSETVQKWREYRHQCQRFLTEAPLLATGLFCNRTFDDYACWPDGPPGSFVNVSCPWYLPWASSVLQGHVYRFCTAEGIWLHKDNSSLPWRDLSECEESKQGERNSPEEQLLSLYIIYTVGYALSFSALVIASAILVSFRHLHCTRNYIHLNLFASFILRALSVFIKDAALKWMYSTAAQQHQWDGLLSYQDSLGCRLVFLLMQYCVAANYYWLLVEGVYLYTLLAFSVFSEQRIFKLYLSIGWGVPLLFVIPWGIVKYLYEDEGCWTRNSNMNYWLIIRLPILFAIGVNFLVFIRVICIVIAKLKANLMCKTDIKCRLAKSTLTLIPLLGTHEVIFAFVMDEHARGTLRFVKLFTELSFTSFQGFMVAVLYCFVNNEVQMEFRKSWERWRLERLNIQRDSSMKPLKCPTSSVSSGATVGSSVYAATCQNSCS
Briefly: Displacement of 125I-GLP-1 binding to COS cells transfected with the rat GLP-1 receptor cDNA. Particulars: 20 pM 125I-GLP-1, increasing concentrations of cold peptide. Background: Displacement assays read how much labelled ligand stays bound in the presence of the test substance.

Consider “secreting: peptide hormone of related structure (probably secretin)”, for which the “displacement of GLP-1 binding (in words)” value is recorded as “did not displace binding”.

For gastric inhibitory peptide [GIP], the “displacement of GLP-1 binding (in words)” value was “did not displace binding”.

Take vasoactive intestinal peptide [VIP]: the “displacement of GLP-1 binding (in words)” value is listed as “did not displace binding”.

The values are drawn from patent US5846747A, “Method for detecting glucagon-like peptide-1 antagonists and agonists” (Novo Nordisk A/S, priority 1993, dated 1998).
